Reference: patent US6350731
Where no end group is shown, it is not given here.

Key:
[1] = biological target: Rb 67; experiment: competitive ELISA on antiserum Rb 67; coated antigen not given
[2] = biological target: Rb 68; experiment: competitive ELISA on antiserum Rb 68; coated antigen not given
[3] = biological target: 2 DMB; experiment: CELIA on monoclonal 2 DMB; coated antigen not given
[4] = biological target: 4 DMB; experiment: CELIA on monoclonal 4 DMB; coated antigen not given
[5] = biological target: 9 DB-1; experiment: CELIA on monoclonal 9 DB-1; coated antigen not given
[6] = biological target: 10 DB-1; experiment: CELIA on monoclonal 10 DB-1; coated antigen not given
[7] = biological target: 12 DB-1; experiment: CELIA on monoclonal 12 DB-1; coated antigen not given
[8] = biological target: 13 DB-1; experiment: CELIA on monoclonal 13 DB-1; coated antigen not given
[9] = biological target: 17 DB-1; experiment: CELIA on monoclonal 17 DB-1; coated antigen not given
[10] = biological target: 19 DB-1; experiment: CELIA on monoclonal 19 DB-1; coated antigen not given
[11] = biological target: 21 DB-1; experiment: CELIA on monoclonal 21 DB-1; coated antigen not given
[12] = biological target: 22 DB-1; experiment: CELIA on monoclonal 22 DB-1; coated antigen not given
[13] = biological target: Rb 37; experiment: competitive ELISA on antiserum Rb 37; coated antigen not given
[14] = biological target: Rb 38; experiment: competitive ELISA on antiserum Rb 38; coated antigen not given
[15] = biological target: Rb 39; experiment: competitive ELISA on antiserum Rb 39; coated antigen not given
[16] = biological target: Rb 65; experiment: competitive ELISA on antiserum Rb 65; coated antigen not given
[17] = biological target: Rb 66; experiment: competitive ELISA on antiserum Rb 66; coated antigen not given
[18] = biological target: Rb 109; experiment: competitive ELISA on antiserum Rb 109; coated antigen not given
[19] = biological target: Rb 112; experiment: competitive ELISA on antiserum Rb 112; coated antigen not given
[20] = biological target: Rb 78; experiment: competitive ELISA on antiserum Rb 78; coated antigen not given

| IC50 [1] [µM] | IC50 [2] [µM] | IC50 [3] [µM] | IC50 [4] [µM] | IC50 [5] [µM] | IC50 [6] [µM] | IC50 [7] [µM] | IC50 [8] [µM] | IC50 [9] [µM] | IC50 [10] [µM] | IC50 [11] [µM] | IC50 [12] [µM] | IC50 [13] [µM] | IC50 [14] [µM] | IC50 [15] [µM] | IC50 [16] [µM] | IC50 [17] [µM] | IC50 [18] [µM] | IC50 [19] [µM] | IC50 [20] [µM] | Binder |
| --- | --- | --- | --- | --- | --- | --- | --- | --- | --- | --- | --- | --- | --- | --- | --- | --- | --- | --- | --- | --- |
| 0.002 | < 0.002 | – | – | – | – | – | – | – | – | – | – | – | – | – | – | – | – | – | – | Ac-RKIEIVRKKC [GP8] |
| – | – | 2 | 0.15 | 1 | 0.4 | 2 | 0.2 | 0.18 | 0.018 | 0.018 | 0.02 | 0.02 | 0.15 | 0.002 | 0.003 | < 0.002 | 0.002 | 0.002 | – | Ac-ISRRLIDRTNANFLC (not fully specified; printed as Ac-25I-S-R-R-L-I-D-R-T-N-A-N-F-L38-C) [GP4] |
| – | – | 2 | 0.15 | 1.2 | – | – | 0.4 | 3 | 0.018 | 0.03 | 0.025 | 0.01 | 0.074 | 0.002 | 0.003 | < 0.002 | 0.004 | 0.003 | – | Ac-ISRRLIDRTNANFLVWPPC [GP10] |
| – | – | – | – | – | – | – | – | – | – | – | – | – | – | – | – | – | – | – | 0.1 | RKIEIVRKKPIFKKATV [GP21a] |
